Results on 95 substances are retold here after the Human Domainome abundance scans (Beltran et al. 2025).

± gives the uncertainty stated by the source.

The nature of this series: abundance fitness (aPCA) (normalised: wild type 0, dead -1); higher = more abundant; growth selection in yeast, the domain comes from the species named. The settings on record: Homo sapiens.
In the case of “Transcriptional activator Myb R190S, P10242”, the abundance fitness was -0.074 ± 0.065. Then “Transcriptional activator Myb R190T, P10242”, with -0.131 ± 0.08; and “Transcriptional activator Myb R190V, P10242”, with -0.01 ± 0.089; and “Transcriptional activator Myb R190W, P10242”, with -0.075 ± 0.11. The figure for “Transcriptional activator Myb R190Y, P10242” is -0.461 ± 0.18. Then “Transcriptional activator Myb R191A, P10242”, with 0.036 ± 0.075.

The substance “Transcriptional activator Myb R191C, P10242” yielded an abundance fitness of 0.172 ± 0.15. The figure for “Transcriptional activator Myb R191D, P10242” is 0.117 ± 0.12; for “Transcriptional activator Myb R191E, P10242” it is 0.004 ± 0.086; for “Transcriptional activator Myb R191F, P10242” it is -0.164 ± 0.21.

With “Transcriptional activator Myb R191G, P10242”, the abundance fitness was -0.038 ± 0.068.

With “Transcriptional activator Myb R191I, P10242”, the abundance fitness is -0.136 ± 0.16. The figure for “Transcriptional activator Myb R191K, P10242” is -0.192 ± 0.12.

“Transcriptional activator Myb R191L, P10242” had an abundance fitness of -0.058 ± 0.077. Substance “Transcriptional activator Myb R191M, P10242” had an abundance fitness of -0.091 ± 0.13. Then “Transcriptional activator Myb R191N, P10242”, with -0.07 ± 0.13; and “Transcriptional activator Myb R191P, P10242”, with 0.047 ± 0.11; and “Transcriptional activator Myb R191S, P10242”, with -0.052 ± 0.076. The figure for “Transcriptional activator Myb R191T, P10242” is 0.022 ± 0.14; for “Transcriptional activator Myb R191V, P10242” it is 0.017 ± 0.094; for “Transcriptional activator Myb R191W, P10242” it is -0.017 ± 0.088.

The substance “Transcriptional activator Myb R191Y, P10242” returned an abundance fitness of -0.423 ± 0.16. “Transcriptional activator Myb S146A, P10242” registered an abundance fitness of -0.233 ± 0.15.

With “Transcriptional activator Myb S146F, P10242”, the abundance fitness was -0.021 ± 0.19. The figure for “Transcriptional activator Myb S146G, P10242” is -0.159 ± 0.2; for “Transcriptional activator Myb S146K, P10242” it is -0.344 ± 0.34. Then “Transcriptional activator Myb S146L, P10242”, with -0.299 ± 0.43; and “Transcriptional activator Myb S146P, P10242”, with -0.108 ± 0.26; and “Transcriptional activator Myb S146V, P10242”, with -0.017 ± 0.29. The figure for “Transcriptional activator Myb S187A, P10242” is -0.075 ± 0.093; for “Transcriptional activator Myb S187C, P10242” it is -0.061 ± 0.1. The substance “Transcriptional activator Myb S187D, P10242” had an abundance fitness of 0.077 ± 0.12. The figure for “Transcriptional activator Myb S187E, P10242” is -0.001 ± 0.067; for “Transcriptional activator Myb S187F, P10242” it is -0.26 ± 0.085; for “Transcriptional activator Myb S187G, P10242” it is -0.023 ± 0.049. The figure for “Transcriptional activator Myb S187H, P10242” is -0.011 ± 0.17; for “Transcriptional activator Myb S187I, P10242” it is -0.033 ± 0.14.

For “Transcriptional activator Myb S187K, P10242”, the abundance fitness was -0.058 ± 0.1. Then “Transcriptional activator Myb S187L, P10242”, with -0.019 ± 0.066; and “Transcriptional activator Myb S187M, P10242”, with -0.188 ± 0.13. Then “Transcriptional activator Myb S187N, P10242”, with -0.161 ± 0.14.

“Transcriptional activator Myb S187P, P10242” returned an abundance fitness of -0.589 ± 0.11. The figure for “Transcriptional activator Myb S187Q, P10242” is 0.125 ± 0.11; for “Transcriptional activator Myb S187R, P10242” it is -0.054 ± 0.049; for “Transcriptional activator Myb S187T, P10242” it is 0.124 ± 0.1. Then “Transcriptional activator Myb S187V, P10242”, with -0.081 ± 0.061. The figure for “Transcriptional activator Myb S187W, P10242” is -0.108 ± 0.07. “Transcriptional activator Myb S202C, P10242” registered an abundance fitness of -0.108 ± 0.1. Then “Transcriptional activator Myb S202D, P10242”, with -0.069 ± 0.087; and “Transcriptional activator Myb S202E, P10242”, with 0.042 ± 0.073. As for “Transcriptional activator Myb S202F, P10242”, the abundance fitness was -0.045 ± 0.093. Regarding “Transcriptional activator Myb S202G, P10242”, the abundance fitness is 0.027 ± 0.047. The figure for “Transcriptional activator Myb S202I, P10242” is -0.021 ± 0.19; for “Transcriptional activator Myb S202L, P10242” it is -0.181 ± 0.073; for “Transcriptional activator Myb S202M, P10242” it is -0.186 ± 0.12. The figure for “Transcriptional activator Myb S202N, P10242” is -0.237 ± 0.18; for “Transcriptional activator Myb S202P, P10242” it is -0.061 ± 0.14; for “Transcriptional activator Myb S202Q, P10242” it is -0.102 ± 0.16.

“Transcriptional activator Myb S202R, P10242” returned an abundance fitness of -0.144 ± 0.063. Then “Transcriptional activator Myb S202T, P10242”, with 0.012 ± 0.11; and “Transcriptional activator Myb S202V, P10242”, with -0.001 ± 0.064; and “Transcriptional activator Myb S202W, P10242”, with -0.211 ± 0.083. The figure for “Transcriptional activator Myb S202Y, P10242” is -0.218 ± 0.17; for “Transcriptional activator Myb S203A, P10242” it is -0.01 ± 0.085. As to “Transcriptional activator Myb S203C, P10242”, the abundance fitness was -0.112 ± 0.094. Consider “Transcriptional activator Myb S203D, P10242”, for which the abundance fitness is -0.079 ± 0.15.

In turn, “Transcriptional activator Myb S203E, P10242” came in with an abundance fitness of 0.079 ± 0.16. The figure for “Transcriptional activator Myb S203F, P10242” is -0.29 ± 0.1; for “Transcriptional activator Myb S203G, P10242” it is 0.072 ± 0.066; for “Transcriptional activator Myb S203H, P10242” it is -0.264 ± 0.12. Then “Transcriptional activator Myb S203K, P10242”, with 0.14 ± 0.19; and “Transcriptional activator Myb S203L, P10242”, with -0.042 ± 0.094.

“Transcriptional activator Myb S203M, P10242” yielded an abundance fitness of -0.054 ± 0.15.

“Transcriptional activator Myb S203N, P10242” came in with an abundance fitness of -0.108 ± 0.1. The figure for “Transcriptional activator Myb S203P, P10242” is -0.139 ± 0.12; for “Transcriptional activator Myb S203Q, P10242” it is 0.061 ± 0.13; for “Transcriptional activator Myb S203R, P10242” it is -0.145 ± 0.074. The figure for “Transcriptional activator Myb S203T, P10242” is 0.006 ± 0.1; for “Transcriptional activator Myb S203V, P10242” it is 0.055 ± 0.082. Then “Transcriptional activator Myb S203W, P10242”, with -0.015 ± 0.097; and “Transcriptional activator Myb S203Y, P10242”, with -0.113 ± 0.15. “Transcriptional activator Myb T145A, P10242” showed an abundance fitness of -0.066 ± 0.061. Then “Transcriptional activator Myb T145C, P10242”, with -0.218 ± 0.16; and “Transcriptional activator Myb T145D, P10242”, with 0.144 ± 0.15; and “Transcriptional activator Myb T145E, P10242”, with 0.055 ± 0.12. Then “Transcriptional activator Myb T145F, P10242”, with -0.123 ± 0.25; and “Transcriptional activator Myb T145G, P10242”, with -0.091 ± 0.061; and “Transcriptional activator Myb T145I, P10242”, with 0.228 ± 0.14. Then “Transcriptional activator Myb T145L, P10242”, with -0.122 ± 0.13; and “Transcriptional activator Myb T145M, P10242”, with 0.117 ± 0.12. In turn, “Transcriptional activator Myb T145N, P10242” gave an abundance fitness of -0.179 ± 0.26. As to “Transcriptional activator Myb T145P, P10242”, the abundance fitness was -0.212 ± 0.12. Then “Transcriptional activator Myb T145Q, P10242”, with -0.171 ± 0.15. Then “Transcriptional activator Myb T145R, P10242”, with -0.232 ± 0.071. Consider “Transcriptional activator Myb T145S, P10242”, for which the abundance fitness is -0.042 ± 0.077.
